Data on one protein can be found in doi:10.1101/2023.06.01.543357, “Novel histones and histone variant families in prokaryotes” (bioRxiv, 2023).

This data set deals with the molecule itself. Description: crystal structure; HTkC at 4.0 mg/mL in 50 mM Tris-HCl pH 7.0, 100 mM KCl, 10% glycerol; sitting drop vapour diffusion, reservoir 0.01 M trisodium citrate, 33% (w/v) PEG 6000; space group P212121, 1.84 Å; four monomers in the asymmetric unit; dimers to tetramer.

B1: face-to-face (FtF) histone from Thermococcus kodakarensis (HTkC) (natural protein)
chain: MAEMLVKSKVKEFVKSVDPEMRVSPEFYDALEAEVKALVEKAIKRAQAEGRKTLYARHV
notes: Face-to-face histone HTkC of Thermococcus kodakarensis, product of gene TK1040 (synthesised gene cloned into pET30b, plasmid pRD503); purification was by heat, heparin and size exclusion; The crystal holds four monomers (two dimers) in the asymmetric unit, forming a torus-shaped tetramer; also called FtF histone HTkC; TK1040; source: E. coli BL21(DE3)pLysS, purified (heat step at 70 °C, HiTrap …)
Take B1: the stoichiometry N – broadly, the number of molecules, sites or subunits per partner or assembly – stood at 4.
